According to the nanobody polyreactivity screen of Harvey et al. (2022):

Experiment: yeast display, Sf9 membrane polyspecificity reagent, FACS + sequencing; frameworks hold sequencing errors
How it was run: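 Nanobodies from a synthetic yeast display library (Saccharomyces cerevisiae BJ5465), induced 36–48 hours with galactose, were stained 1 hour at 4 °C with 10% biotinylated, detergent-solubilized Sf9 membrane reagent, enriched on streptavidin microbeads, then FACS-sorted. Anti-HA (expression) and streptavidin (reagent binding) fluorescence set low and high (top ~1%) gates. Polyreactivity labels come from the gate of origin. Genes were colony-PCR amplified, MiSeq 2 × 250 sequenced and filtered by CDR length.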

Sequence | polyreactivity (PSR sort gate)
QVQLVESGGGLVQAGGSLRLSCAASGSTFRGYVMGWYRQAPGKERELVAAISSGGRTYYADSVKGRFTISRDNAKNTVYLQMNSLKPEDTAVYYCNSNGRDVYYNWAYDYWGQGTQVTVSS | high polyreactivity
QVQLVESGGGLVQAGGSLRLSCAASGSTFRHNAMGWYRQGPGKERELVATIRTSGGTTYYADSVKGRFTISRDNAKNTVYLQMNSLKPEDTAVYYCAAVSYLFLYQGYPIAYPMYYWGQGTQVTVSS | low polyreactivity
QVQLVESGGGLVQAGGSLRLSCAASGSTFRINAMGWYRQAPGKERELVADINSGGNTTYADSVKGRFTISRDNAKNTVYFQMNSLKPEDTAVYYCAAAPVFDLWVFLLDYGYDYWGQGTQVTVSS | low polyreactivity
QVQLVESGGGLVQAGGSLRLSCAASGSTFRINAMGWYRQAPGKERELVADINSGGNTTYADSVKGRFTISRDNAKNTVYLQMNSLKPEDTAVYYCAADPVFDLWEFLLDYGYDYWGQGTQVTVSS | low polyreactivity
QVQLVESGGGLVQAGGSLRLSCAASGSTFRIYAMGLYRQAPGKERELVAAIRRSGGSTYYADSVKGRFTISRDNAKNTVYLQMNSLKPEDTAVYYCAADLYYQAPGYQDRYRHSRYEYWGQGTQVTVSS | high polyreactivity
QVQLVESGGGLVQAGGSLRLSCAASGSTFRKDAMGWYRQAPGKERELVAAISSSGGDTYYADSVKGRFTISRDNAKNTVYLQMNSLKPEDTAVYYCNTKRPYRVYFRYGYWGQGTQVTVSS | high polyreactivity
QVQLVESGGGLVQAGGSLRLSCAASGSTFRKNAMGWYRQAPGKERELVAAITYSGGGTYYADSVKGRFTISRDNAKNTVYLQMNSLKPEDTAVYYCAAERNKYAPYYYWGQGTQVTVSS | high polyreactivity
QVQLVESGGGLVQAGGSLRLSCAASGSTFRKYAMGWYRQAPGTEREFVAAITWSTGTTYYADSVKGRFTISRDNAKNTVYLQMNSLKPEDTAVYYCAADSQPPHELYESIEHESWGQGTQVTVSS | low polyreactivity
QVQLVESGGGLVQAGGSLRLSCAASGSTFRKYVMGWYRQAPGKERELDAGITSRGGSTYYADSVKGRFTISRDNAKNTVYLQMNSLKPEDSAVYYCAKRAYGTALYRGYGYWGQGTQVPVSS | low polyreactivity
QVQLVESGGGLVQAGGSLRLSCAASGSTFRLNAMGWYRQAPGKERELVAAISRSTGTTHYADSVKGRFTISRDNAKNTVYLQMNSLKPEDTAVYYCATDRAKWHKNGDLGYWGQGTQVTVSS | low polyreactivity
QVQLVESGGGLVQAGGSLRLSCAASGSTFRLNAMGWYRQAPGKERELVAAISWTGGSTYYADSVKGRFTISRDNAKNTVYLQMNSLKPEDTAVYYCAADWWQGTSHYWGGAYNYWGQGTQVTVSS | low polyreactivity
QVQLVESGGGLVQAGGSLRLSCAASGSTFRLYAMGCYRPAPGKERELVAVISRSGGRTYADSVKGRFTISRDNAKNTVYLQMNSLKPEDTAVYYCAKARHKSPTYTHDSWGQGTQVTVSS | high polyreactivity
QVQLVESGGGLVQAGGSLRLSCAASGSTFRLYAMGWYRQAPGKERELVAAISSRGGTTYYADSVKGRFTISRDNAKNTVYLQMNSLKPEDTAVYYCAAPRASQYGDDYWGHGTQVTVSS | high polyreactivity
QVQLVESGGGLVQAGGSLRLSCAASGSTFRLYAMGWYRQAPGKERELVAVISRSGGRTYADSVKGRFTISRDNAKNTVYLQMNSLKPEDTAVYYCAKARHKSPTYTHDSWGQGTQVTVSS | high polyreactivity
QVQLVESGGGLVQAGGSLRLSCAASGSTFRNYAMGWSRQAPGKERELVAAISGSGGRTKYADSVKGRFTISRDNAKNTVYLQMNSLKPEDTAVYYWNARFPDWALSEISHSTTYGLWGQGTLVTVSS | low polyreactivity
QVQLVESGGGLVQAGGSLRLSCAASGSTFRPYAMGWYREAPGKERELVAAITSTGGSTYYADSVKGRFTISRDNAKNSVSLQMNSLKPDDTAVYYCAAPLVRYAGPYDYWGQGTQVTVSS | low polyreactivity

Sequence | polyreactivity (PSR sort gate)
QVQLVESGGGLVQAGGSLRLSCAASGSTFRPYAMGWYRQAPGKERELLAAISSGDTTDYADSVKGRFTISRDNAKNTVYLQMNSLKPEDNAVYYCATVFNDLTVYEYWSRFDYWGPGTQVTVSS | low polyreactivity
QVQLVESGGGLVQAGGSLRLSCAASGSTFRPYAMGWYRQAPGKERELVAAITSTGGSTYYADSVKGRFTISRDNAKNTVYLQMNSLKPEDTAVYYCAAPLVRYAGPYDYWGQGTQVTVSS | low polyreactivity
QVQLVESGGGLVQAGGSLRLSCAASGSTFRQYAMGWYRQAPGKERELVAAIRGRDGSTYYADSVKGRFTISRDNAKNTVYLQMNSLKPEDTAVYYCNVVARGVSPGYDYWGQGTQVTVSS | high polyreactivity
QVQLVESGGGLVQAGGSLRLSCAASGSTFRQYAMGWYRQAPGKERELVAAISSGGRTNYADSVKGRFTISRDNAKNTVYLQMNSLKPEDTAVYYCASDIRRRVPVRGYYYWGQGTQVTVSS | high polyreactivity
QVQLVESGGGLVQAGGSLRLSCAASGSTFRRYAMGWYRQAPGKERELVAAIRQRGTSTYYADSVKGRFTISRDNAKNTVYLQMNSLKPEDTAVYYCAAGPSLWLFNSWGQGTQVTVSS | high polyreactivity
QVQLVESGGGLVQAGGSLRLSCAASGSTFRRYAMGWYRQAPGKERELVAAITSTDVNTYYADSVKGRFTISRDNAKNTVYLQMNSLKPEDTAVYYCAAVYLGYYGVSDMEYWGQGTQVTVSS | high polyreactivity
QVQLVESGGGLVQAGGSLRLSCAASGSTFRRYAMGWYRQAPGKERELVAAITTRGGSTYYADSVKGRFTISRDNAKNSVYLQMNSLKPEDTAVYYCARDYSTYLRTAGDYWGQGTQVTVSS | low polyreactivity
QVQLVESGGGLVQAGGSLRLSCAASGSTFRRYAMGWYRQAPGKERELVAGISKRGVSTYYADSVKGRFTISRDNAKNTVYLQMNSLKPEDTAVYYCAAEWTVSKYDYWGQGTQVTVSS | low polyreactivity
QVQLVESGGGLVQAGGSLRLSCAASGSTFRRYAMGWYRQAPGKEREMVAGITYGSTYYADSVKGRFTISRDNAKNTVYLLMNSLKPEDTAVYYCAADLSYTSVHGYRSDTLMDYWGQGTQVTVSS | low polyreactivity
QVQLVESGGGLVQAGGSLRLSCAASGSTFRSNAMGWYRQAPGKERELVAGISRRGGSTYYADSVTGRVTISRDNAKNTVYLQMNSLKPEDTAVDYCAASSRSFIRVYYWGQGTQVTVSS | high polyreactivity
QVQLVESGGGLVQAGGSLRLSCAASGSTFRSYAMGWYRQAPGKERELVAVISKRGGSTYYADSVKGRFTISRDNAKNTVYLQMNSLKPEDTAVYYCAARPGPYWTVTFRSPKYYYWGQGTQVTVSS | high polyreactivity
QVQLVESGGGLVQAGGSLRLSCAASGSTFRSYAMGWYRQAPGKERESVARISYRTGSTYYADSVKGRFTISRDNAKNTVYLQMNSLEPEDTAVYYCATRGSYVGGLYDYWGQGTQVTVSS | high polyreactivity
QVQLVESGGGLVQAGGSLRLSCAASGSTFRSYAMGWYRQSPGKERELVAAISTRGGSTYYADSVKGRFTISRDNAKNTVYLQMNSLKPEDTAVYYCAVEIVWAYGPTDYYYWGQGTQVTVSS | high polyreactivity
QVQLVESGGGLVQAGGSLRLSCAASGSTFRSYDMGWYRQAPGKERELVAASSSGGSTNYADSVKGRFTISRDNAKNTVYLQMNSLKPEDTAVYYCNAEYPYYWFKYDYWGQGTQVTVSS | low polyreactivity
QVQLVESGGGLVQAGGSLRLSCAASGSTFRSYNMGWYRQAPGKERELVADINGTGGSTYYADSVKGRFTISRDNAKNTVYLQMNSLKPEDTAVYYCAADGYFRTVTSGWALRMGYWGQGTQVTVSS | high polyreactivity
